{
  "source": "patent US8460910B2",
  "about": "(Illumina Cambridge Limited, priority 2003, dated 2013)",
  "tested_on": "3′ modified nucleotide",
  "experiment": "Gel-based incorporation assay of Example 2, two cycles of enzymology on bead-bound 32P-labelled DNA template",
  "assay_type": "biochemical",
  "protocol": "The mutant polymerases were assessed for their ability to incorporate a 3′ blocked nucleotide analogue using a gel-based assay as described in generic form in Example 1. The rates of incorporation of the modified nucleotides were compared to purified forms of related DNA polymerases in both a single round of incorporation and through two rounds of nucleotide incorporation. The DNA template that was used for these experiments was a commercially-synthesised biotinylated oligonucleotide.\nThe method for two cycles of incorporation involves the binding of the DNA primer-template to streptavidin-coated beads (Dynalbeads). These are prepared as follows: • Resuspend beads in storage pot by pipetting up and down Take 20 μL beads • Wash 3×200 μL TE buffer (10 mM Tris HCl pH 7.5, 1 mM EDTA) Add 50 μL B&W buffer (5 mM Tris HCl, pH 7.5; 1M NaCl, […]) • 25 μL H2O • 25 μL of ^32P-labelled biotin DNA template (final concentration of 100 nM)\nThe first cycle of enzymatic incorporation is performed on these beads as follows:\nIncorporation mix 1 is added to the bead pellet from above.\nReactions are incubated at 45° C. for 15 minutes\nThe first cycle of enzymology is then deblocked by treatment with tri(carboxyethyl) phosphine (TCEP) as follows:\nAdd 65 μL TCEP (100 mM) in water and incubate at 65° C. for 15 minutes\nAfter removal of the TE buffer, a second cycle of enzymatic incorporation is then performed by the addition of incorporation mix 2, as follows:\nTake 5 μL samples out at ½, 1, 2, 4, 10, 30, 60 mins and add to gel loading buffer with EDTA.\nHeat all samples to 95° C. for 10 mins and load 3 μl on a 12% acrylamide gel (Sambrook and Russell, 2001).\nTime (mins) to 50% product conversion on second cycle of enzymology at 45° C., 50 mM Tris, pH 8, 4 mM MgSO4, 0.05 (v/v) Tween, 50 μg/ml enzyme, and 2 μM 3′ modified nucleotide. Time to 50% product conversion on first cycle of incorporation shown in parentheses. For other mutants the time to 50% conversion on the first cycle was not measured in these experiments",
  "key": {"[1]": {"conditions": "45° C., 50 mM Tris, pH 8, 4 mM MgSO4, 0.05 (v/v) Tween, 50 μg/ml enzyme, 2 μM 3′ modified nucleotide"}},
  "data": [
    {"molecule": "YAS: 9° N polymerase mutant, motif A region YAS, also A485L; SEQ ID NO: 20 (protein, 9oN polymerase variant (exo-) with L408Y/Y409A/P410S mutations) MILDTDYITENGKPVIRVFKKENGEFKIEYDRTFEPYFYALLKDDSAIEDVKKVTAKRHGTVVKVKRAEKVQKKFLGRPIEVWKLYFNHPQDVPAIRDRIRAHPAVVDIYEYDIPFAKRYLIDKGLIPMEGDEELTMLAFAIATLYHEGEEFGTGPILMISYADGSEARVITWKKIDLPYVDVVSTEKEMIKRFLRVVREKDPDVLITYNGDNFDFAYLKKRCEELGIKFTLGRDGSEPKIQRMGDRFAVEVKGRIHFDLYPVIRRTINLPTYTLEAVYEAVFGKPKEKVYAEEIAQAWESGEGLERVARYSMEDAKVTYELGREFFPMEAQLSRLIGQSLWDVSRSSTGNLVEWFLLRKAYKRNELAPNKPDERELARRRGGYAGGYVKEPERGLWDNIVYLDFRSYASSIIITHNVSPDTLNREGCKEYDVAPEVGHKFCKDFPGFIPSLLGDLLEERQKIKRKMKATVDPLEKKLLDYRQRLIKILANSFYGYYGYAKARWYCKECAESVTAWGREYIEMVIRELEEKFGFKVLYADTDGLHATIPGADAETVKKKAKEFLKYINPKLPGLLELEYEGFYVRGFFVTKKKYAVIDEEGKITTRGLEIVRRDWSEIAKETQARVLEAILKHGDVEEAVRIVKEVTEKLSKYEVPPEKLVIHEQITRDLRDYKATGPHVAVAKRLAARGVKIRPGTVISYIVLKGSGRIGDRAIPADEFDPTKHRYDAEYYIENQVLPAVERILKAFGYRKEDLRYQKTKQVGLGAWLKVKGKK", "values": [
      {"measurement": "Time (mins) to 50% product conversion on second cycle of enzymology", "setting": "[1]", "result": 1.5, "unit": "min"},
      {"measurement": "incorporation of 3′ modified nucleotide analogues compared to 9° N DM (Y409V/A485L)", "setting": "region A variants, conditions of Example 2", "result": "best incorporation rate"}
    ]},
    {"molecule": "FAI: 9° N DM-derived polymerase with amino acids 408-410 FAI (protein, UniProt Q56366 1-775, looked up, variant D141A E143A L408F Y409A P410I A485L) DNA polymerase: MILDTDYITENGKPVIRVFKKENGEFKIEYDRTFEPYFYALLKDDSAIEDVKKVTAKRHGTVVKVKRAEKVQKKFLGRPIEVWKLYFNHPQDVPAIRDRIRAHPAVVDIYEYDIPFAKRYLIDKGLIPMEGDEELTMLAFAIATLYHEGEEFGTGPILMISYADGSEARVITWKKIDLPYVDVVSTEKEMIKRFLRVVREKDPDVLITYNGDNFDFAYLKKRCEELGIKFTLGRDGSEPKIQRMGDRFAVEVKGRIHFDLYPVIRRTINLPTYTLEAVYEAVFGKPKEKVYAEEIAQAWESGEGLERVARYSMEDAKVTYELGREFFPMEAQLSRLIGQSLWDVSRSSTGNLVEWFLLRKAYKRNELAPNKPDERELARRRGGYAGGYVKEPERGLWDNIVYLDFRSFAISIIITHNVSPDTLNREGCKEYDVAPEVGHKFCKDFPGFIPSLLGDLLEERQKIKRKMKATVDPLEKKLLDYRQRLIKILANSFYGYYGYAKARWYCKECAESVTAWGREYIEMVIRELEEKFGFKVLYADTDGLHATIPGADAETVKKKAKEFLKYINPKLPGLLELEYEGFYVRGFFVTKKKYAVIDEEGKITTRGLEIVRRDWSEIAKETQARVLEAILKHGDVEEAVRIVKEVTEKLSKYEVPPEKLVIHEQITRDLRDYKATGPHVAVAKRLAARGVKIRPGTVISYIVLKGSGRIGDRAIPADEFDPTKHRYDAEYYIENQVLPAVERILKAFGYRKEDLRYQKTKQVGLGAWLKVKGKK", "values": [
      {"measurement": "Time (mins) to 50% product conversion on second cycle of enzymology", "setting": "[1]", "result": 2.2, "unit": "min"}
    ]},
    {"molecule": "CAA: 9° N DM-derived polymerase with amino acids 408-410 CAA (protein, UniProt Q56366 1-775, looked up, variant D141A E143A L408C Y409A P410A A485L) DNA polymerase: MILDTDYITENGKPVIRVFKKENGEFKIEYDRTFEPYFYALLKDDSAIEDVKKVTAKRHGTVVKVKRAEKVQKKFLGRPIEVWKLYFNHPQDVPAIRDRIRAHPAVVDIYEYDIPFAKRYLIDKGLIPMEGDEELTMLAFAIATLYHEGEEFGTGPILMISYADGSEARVITWKKIDLPYVDVVSTEKEMIKRFLRVVREKDPDVLITYNGDNFDFAYLKKRCEELGIKFTLGRDGSEPKIQRMGDRFAVEVKGRIHFDLYPVIRRTINLPTYTLEAVYEAVFGKPKEKVYAEEIAQAWESGEGLERVARYSMEDAKVTYELGREFFPMEAQLSRLIGQSLWDVSRSSTGNLVEWFLLRKAYKRNELAPNKPDERELARRRGGYAGGYVKEPERGLWDNIVYLDFRSCAASIIITHNVSPDTLNREGCKEYDVAPEVGHKFCKDFPGFIPSLLGDLLEERQKIKRKMKATVDPLEKKLLDYRQRLIKILANSFYGYYGYAKARWYCKECAESVTAWGREYIEMVIRELEEKFGFKVLYADTDGLHATIPGADAETVKKKAKEFLKYINPKLPGLLELEYEGFYVRGFFVTKKKYAVIDEEGKITTRGLEIVRRDWSEIAKETQARVLEAILKHGDVEEAVRIVKEVTEKLSKYEVPPEKLVIHEQITRDLRDYKATGPHVAVAKRLAARGVKIRPGTVISYIVLKGSGRIGDRAIPADEFDPTKHRYDAEYYIENQVLPAVERILKAFGYRKEDLRYQKTKQVGLGAWLKVKGKK", "values": [
      {"measurement": "Time (mins) to 50% product conversion on second cycle of enzymology", "setting": "[1]", "result": 15, "unit": "min"}
    ]},
    {"molecule": "FAP: 9° N DM-derived polymerase with amino acids 408-410 FAP (protein, UniProt Q56366 1-775, looked up, variant D141A E143A L408F Y409A A485L) DNA polymerase: MILDTDYITENGKPVIRVFKKENGEFKIEYDRTFEPYFYALLKDDSAIEDVKKVTAKRHGTVVKVKRAEKVQKKFLGRPIEVWKLYFNHPQDVPAIRDRIRAHPAVVDIYEYDIPFAKRYLIDKGLIPMEGDEELTMLAFAIATLYHEGEEFGTGPILMISYADGSEARVITWKKIDLPYVDVVSTEKEMIKRFLRVVREKDPDVLITYNGDNFDFAYLKKRCEELGIKFTLGRDGSEPKIQRMGDRFAVEVKGRIHFDLYPVIRRTINLPTYTLEAVYEAVFGKPKEKVYAEEIAQAWESGEGLERVARYSMEDAKVTYELGREFFPMEAQLSRLIGQSLWDVSRSSTGNLVEWFLLRKAYKRNELAPNKPDERELARRRGGYAGGYVKEPERGLWDNIVYLDFRSFAPSIIITHNVSPDTLNREGCKEYDVAPEVGHKFCKDFPGFIPSLLGDLLEERQKIKRKMKATVDPLEKKLLDYRQRLIKILANSFYGYYGYAKARWYCKECAESVTAWGREYIEMVIRELEEKFGFKVLYADTDGLHATIPGADAETVKKKAKEFLKYINPKLPGLLELEYEGFYVRGFFVTKKKYAVIDEEGKITTRGLEIVRRDWSEIAKETQARVLEAILKHGDVEEAVRIVKEVTEKLSKYEVPPEKLVIHEQITRDLRDYKATGPHVAVAKRLAARGVKIRPGTVISYIVLKGSGRIGDRAIPADEFDPTKHRYDAEYYIENQVLPAVERILKAFGYRKEDLRYQKTKQVGLGAWLKVKGKK", "values": [
      {"measurement": "Time (mins) to 50% product conversion on second cycle of enzymology", "setting": "[1]", "result": 5.5, "unit": "min"}
    ]},
    {"molecule": "9° N DM: 9° N (-exo) Y409V/A485L double mutant control polymerase; SEQ ID NO: 15 (protein, 9oN polymerase (exo-) with Y409V and A485L mutations) MILDTDYITENGKPVIRVFKKENGEFKIEYDRTFEPYFYALLKDDSAIEDVKKVTAKRHGTVVKVKRAEKVQKKFLGRPIEVWKLYFNHPQDVPAIRDRIRAHPAVVDIYEYDIPFAKRYLIDKGLIPMEGDEELTMLAFAIATLYHEGEEFGTGPILMISYADGSEARVITWKKIDLPYVDVVSTEKEMIKRFLRVVREKDPDVLITYNGDNFDFAYLKKRCEELGIKFTLGRDGSEPKIQRMGDRFAVEVKGRIHFDLYPVIRRTINLPTYTLEAVYEAVFGKPKEKVYAEEIAQAWESGEGLERVARYSMEDAKVTYELGREFFPMEAQLSRLIGQSLWDVSRSSTGNLVEWFLLRKAYKRNELAPNKPDERELARRRGGYAGGYVKEPERGLWDNIVYLDFRSLVPSIIITHNVSPDTLNREGCKEYDVAPEVGHKFCKDFPGFIPSLLGDLLEERQKIKRKMKATVDPLEKKLLDYRQRLIKILANSFYGYYGYAKARWYCKECAESVTAWGREYIEMVIRELEEKFGFKVLYADTDGLHATIPGADAETVKKKAKEFLKYINPKLPGLLELEYEGFYVRGFFVTKKKYAVIDEEGKITTRGLEIVRRDWSEIAKETQARVLEAILKHGDVEEAVRIVKEVTEKLSKYEVPPEKLVIHEQITRDLRDYKATGPHVAVAKRLAARGVKIRPGTVISYIVLKGSGRIGDRAIPADEFDPTKHRYDAEYYIENQVLPAVERILKAFGYRKEDLRYQKTKQVGLGAWLKVKGKK", "values": [
      {"measurement": "Time to 50% product conversion on first cycle of incorporation", "setting": "45° C., 50 mM Tris, pH 8, 4 mM MgSO4, 0.05 (v/v) Tween, 50 μg/ml enzyme, 2 μM 3′ modified nucleotide, first cycle (in parentheses)", "result": "no product conversion under these"},
      {"measurement": "Time (mins) to 50% product conversion on second cycle of enzymology", "setting": "[1]", "result": "no product conversion under these"}
    ]}
  ]
}
